Measured values from patent US20120114667A1 (AstraZeneca / MedImmune, published 2012).

Assays:
[1] = biological target: T1, α4β1 integrin on J6.77 Jurkat cells (UniProt P13612 34-1032; P05556 21-798); experiment: cell-based or functional assay
human α5β1 integrin [2] = biological target: T2, human α5β1 integrin (human, UniProt P08648 42-1049; P05556 21-798); experiment: cell-based or functional assay
Macaque α5β1 = biological target: T3, Macaque α5β1 (Macaque); experiment: FACS on macaque PBMC, 1 mM Mn2+
T3 construct: whole, on cells; macaque species not specified; also called monkey α5β1; monkey integrin
Procedure: To determine whether the antibodies cross reacted to monkey integrin, binding to purified Macaque T-cells was assessed. Macaque PBMCs were previously purified from whole blood, and stored frozen. Macaque PBMCs were suspended in adhesion buffer with HBSS 1% BSA and 1 mM Mn2+ (“FACS buffer”), at a concentration of 4.8×10⁵ live cells per ml. 12.5 uL of the primary antibody was added to 37.5 ul of cells, and incubated at 4° C. for 1 hour. Positive and negative controls were included as indicated. 100 uL of FACs buffer is added to dilute out primary antibody, the cells washed and resuspended in the appropriate secondary at 2 ug/mL (50 uL) with 10 ug/mL 7AAD, and stained on ice for 7 minutes. 100 uL of FACs buffer was added and cells were washed twice in FACS buffer, finally the supernatant removed and the cells were resuspended in 100 uL of buffer.
Samples were read on HTS FACS machine and analyzed using Cell Quest Pro software. The data shown in Table 7 confirm that the antibodies cross react with monkey α5β1.

human α5β1 integrin [3] = biological target: T2, human α5β1 integrin; experiment: cell-based or functional assay; remark: listed apart in the source
[4] = biological target: T4, β1 integrin chain on HT29 cells (α5 null line) (human, UniProt P05556 21-798); experiment: FACS on HT29 cells (no α5, β1 present)
T4 construct: whole, on cells; β1 is paired with alpha chains other than α5 on these cells; also called β1 chain; beta1
T4 sequence (P05556 21-798): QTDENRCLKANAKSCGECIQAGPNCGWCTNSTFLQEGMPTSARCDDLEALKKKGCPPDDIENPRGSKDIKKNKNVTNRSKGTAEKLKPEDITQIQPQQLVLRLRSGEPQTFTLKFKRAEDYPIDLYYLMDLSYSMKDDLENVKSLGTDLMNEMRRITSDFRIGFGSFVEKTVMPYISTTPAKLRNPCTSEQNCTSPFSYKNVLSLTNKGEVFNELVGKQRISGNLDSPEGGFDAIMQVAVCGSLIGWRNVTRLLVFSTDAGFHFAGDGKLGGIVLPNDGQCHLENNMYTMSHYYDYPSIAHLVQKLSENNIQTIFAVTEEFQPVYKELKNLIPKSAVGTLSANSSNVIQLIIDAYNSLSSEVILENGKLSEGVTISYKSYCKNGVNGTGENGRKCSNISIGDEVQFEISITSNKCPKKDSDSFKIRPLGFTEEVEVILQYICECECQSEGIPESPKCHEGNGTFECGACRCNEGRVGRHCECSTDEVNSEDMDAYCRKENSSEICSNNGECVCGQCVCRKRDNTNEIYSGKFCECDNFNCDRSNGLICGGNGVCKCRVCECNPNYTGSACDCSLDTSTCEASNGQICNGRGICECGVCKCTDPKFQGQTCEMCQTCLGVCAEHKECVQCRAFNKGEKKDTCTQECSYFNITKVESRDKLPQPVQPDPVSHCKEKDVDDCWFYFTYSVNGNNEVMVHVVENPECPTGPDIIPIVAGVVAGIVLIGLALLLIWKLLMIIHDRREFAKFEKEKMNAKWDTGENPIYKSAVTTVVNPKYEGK
Procedure: To confirm the antibodies bind to the α5 chain or to the α5β1 heterodimer, binding to Human colon adenocarcinoma grade II cells (HT29 cells) was assessed by FACS. […] HT-29 cells were suspended in HBSS with 1% BSA and 1 mM final MnCL₂ at a concentration of 6×10⁵ cells/ml.12.5 uL of the primary antibody was added to 37.5 ul of cells and the plate incubated on ice for 60 minutes. A range of negative controls were included as described previously (indicated as below). In addition as a positive control antibodies to αvβ6 (Mab2077, Chemicon), α5β1 (Mab1909, Chemicon) and av (L230, Chemicon) were included. 100 uL of HBSS buffer was added to dilute primary antibody, the cells pelleted by centrifuging at 1500 rpm for 3 minutes and resuspended in 50 ul Goat anti-human IgG Fc Cy5 or Goat anti Mouse IgG Fc Cy5 secondary at 2 ug/mL. They were then incubated on ice for a further 7 minutes, and 100 uL of HBSS buffer was added to dilute secondary antibody. Finally cells were pelleted by centrifuging at 1500 rpm for 3 minutes, HBSS Buffer/secondary supernatant removed, washed twice in 100 ul of FACS buffer was added and the cells were resuspended and then read on a FACS Calibur HTS. Samples were analyzed using Cell Quest Pro software. The data is represented in Table 6 and confirm that the antibodies are selective for α5β1.

[5] = biological target: T1, α4β1 integrin on J6.77 Jurkat cells; experiment: cell-based or functional assay; remark: listed apart in the source

T1 sequence (P13612 34-1032, chain 1 of 2): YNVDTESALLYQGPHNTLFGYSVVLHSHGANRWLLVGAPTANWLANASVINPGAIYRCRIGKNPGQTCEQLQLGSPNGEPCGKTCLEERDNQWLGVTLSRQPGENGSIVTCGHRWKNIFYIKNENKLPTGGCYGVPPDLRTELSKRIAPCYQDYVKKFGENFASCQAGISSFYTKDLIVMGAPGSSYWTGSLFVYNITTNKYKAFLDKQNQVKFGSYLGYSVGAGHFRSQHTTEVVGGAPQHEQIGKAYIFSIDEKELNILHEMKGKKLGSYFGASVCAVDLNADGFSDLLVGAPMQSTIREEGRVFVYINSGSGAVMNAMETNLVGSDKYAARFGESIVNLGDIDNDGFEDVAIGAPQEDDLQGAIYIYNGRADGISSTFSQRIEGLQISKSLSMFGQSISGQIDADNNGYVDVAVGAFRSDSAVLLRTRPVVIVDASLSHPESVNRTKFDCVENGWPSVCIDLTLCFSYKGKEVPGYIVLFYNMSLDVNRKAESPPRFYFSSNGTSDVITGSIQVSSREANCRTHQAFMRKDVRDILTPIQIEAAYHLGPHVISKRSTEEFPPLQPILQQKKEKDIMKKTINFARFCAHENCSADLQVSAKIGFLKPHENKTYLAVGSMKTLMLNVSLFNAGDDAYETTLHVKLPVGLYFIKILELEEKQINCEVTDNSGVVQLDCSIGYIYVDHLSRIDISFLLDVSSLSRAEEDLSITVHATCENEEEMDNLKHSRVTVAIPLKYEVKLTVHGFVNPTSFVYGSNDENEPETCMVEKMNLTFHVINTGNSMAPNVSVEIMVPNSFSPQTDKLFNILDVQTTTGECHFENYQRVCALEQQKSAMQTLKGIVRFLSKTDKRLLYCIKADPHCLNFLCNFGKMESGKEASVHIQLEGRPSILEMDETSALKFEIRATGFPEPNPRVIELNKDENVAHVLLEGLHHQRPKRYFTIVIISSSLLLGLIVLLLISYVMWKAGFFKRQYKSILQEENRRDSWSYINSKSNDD
T1 sequence (P05556 21-798, chain 2 of 2): as the sequence (P05556 21-798) above
T2 sequence (P08648 42-1049, chain 1 of 2): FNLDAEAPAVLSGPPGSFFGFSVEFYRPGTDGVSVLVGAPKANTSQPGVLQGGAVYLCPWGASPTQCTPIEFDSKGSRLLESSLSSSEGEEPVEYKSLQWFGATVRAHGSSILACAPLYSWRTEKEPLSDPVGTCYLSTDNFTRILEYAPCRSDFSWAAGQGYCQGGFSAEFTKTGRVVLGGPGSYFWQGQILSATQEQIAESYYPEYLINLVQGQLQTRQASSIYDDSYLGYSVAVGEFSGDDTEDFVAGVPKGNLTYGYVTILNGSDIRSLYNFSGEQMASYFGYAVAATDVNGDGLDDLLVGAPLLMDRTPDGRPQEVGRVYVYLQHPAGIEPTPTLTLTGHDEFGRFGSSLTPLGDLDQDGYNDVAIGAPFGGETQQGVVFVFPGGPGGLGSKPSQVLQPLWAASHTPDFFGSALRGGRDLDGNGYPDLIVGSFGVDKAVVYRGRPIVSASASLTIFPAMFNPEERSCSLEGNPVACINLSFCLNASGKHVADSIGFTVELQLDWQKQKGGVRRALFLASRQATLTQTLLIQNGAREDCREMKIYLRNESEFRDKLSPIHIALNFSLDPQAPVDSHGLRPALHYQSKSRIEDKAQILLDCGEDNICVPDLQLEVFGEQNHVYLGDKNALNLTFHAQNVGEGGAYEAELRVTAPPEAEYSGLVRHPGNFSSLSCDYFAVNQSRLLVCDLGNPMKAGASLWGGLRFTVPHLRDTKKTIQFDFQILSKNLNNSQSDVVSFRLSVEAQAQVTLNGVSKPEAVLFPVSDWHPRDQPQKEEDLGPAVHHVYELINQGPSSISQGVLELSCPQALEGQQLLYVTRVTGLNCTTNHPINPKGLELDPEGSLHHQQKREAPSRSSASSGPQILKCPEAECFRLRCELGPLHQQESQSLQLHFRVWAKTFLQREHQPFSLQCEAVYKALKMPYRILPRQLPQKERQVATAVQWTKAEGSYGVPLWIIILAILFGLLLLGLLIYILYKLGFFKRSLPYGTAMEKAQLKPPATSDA
T2 sequence (P05556 21-798, chain 2 of 2): as the sequence (P05556 21-798) above

Row | Average % inhibition at 5 ug/ml (J6 adhesion to GST-CS-1) [1] | % Inhibition of cell adhesion n = 1 (K562 on full length FN) (human α5β1 integrin [2]) | % Inhibition of cell adhesion n = 2 (K562 on full length FN) (human α5β1 integrin [2]) | % Inhibition of cell adhesion n = 3 (K562 on GST-FNIII(9-10), no pre-incubation) (human α5β1 integrin [2]) | % Inhibition of cell adhesion n = 4 (K562 on GST-FNIII(9-10), supernatant 1 in 10) (human α5β1 integrin [2]) | % Inhibition of cell adhesion n = 5 (K562 on GST-FNIII(9-10), supernatant 1 in 10) (human α5β1 integrin [2]) | Geo Mean on Macaque T-cells IgG detection (Macaque α5β1) | IC50 ng/mL (K562 adhesion to GST-FNIII(9-10)) (human α5β1 integrin [3]) | Binding Geomean [4] | binding result [4] | % Inhibition of adhesion CS1 n = 1 (J6.77 Jurkat on GST-CS-1) [5] | % Inhibition of adhesion CS1 n = 2 (J6.77 Jurkat on GST-CS-1) [5] | Binder
1 | -14% | 93% | 100% | 94% | 85% | 75% | 12 | 57 ng/mL | 3.1 | no binding | 45% | 21% | 7B2.3B10 (antibody, IgG4, V domains shown) VH: QVQLVESGGGVVQPGRSLRLSCAASGFTFSSYGMHWVRQAPGKGLEWVAVIWYDGSYKYYADSVQGRFTISRDNSKNTLYLQMNSLRAEDTAVYYCARDKGGHYFDYWGQGTLVTVSS VL: DIQMTQSPSSLSASVGDRVTITCRASQSISSYLNWYQQKPGKAPKLLIYAASSLQSGVPSRFSGSGSGTDFTLTISSLQPEDFATYYCQQNFSFPPEWTFGQGTKVEIK
2 | 2% | 98% | 100% | 94% | 94% | 87% | 12 | 73.4 ng/mL | 2.86 | no binding | 40% | 10% | 9E2.3A8 (antibody, IgG4, V domains shown) VH: not shown VL: DIVMTQSPDSLAVSLGERATINCKSSQSVLHNSHNENYLTWYQQKPGQPPKLLIYWASSRESGVPDRFSGSGSGTDFTLSISSLQADDVAVYYCQQYFSNPWTFGQGTKVEIK
3 | -23% | 99% | 95% | 91% | 92% | 90% | 11 | 52.2 ng/mL | 2.99 | no binding | 24% | 9% | 8A6.1A3 (antibody, IgG4, V domains shown) VH: not shown VL: DIVMTQSPDSLAVSLGERATINCKSSQSVFFSSSNENYLTWYQQKPGQPPKLLIYWASTRESGVPDRFSGSGSGTDFTLTISSLQAEDVAVYYCQQYYNIPWTFGQGTKVEIK

The next lines start with the binder.

Row | Binder | Average % inhibition at 5 ug/ml (J6 adhesion to GST-CS-1) [1] | % Inhibition of cell adhesion n = 1 (K562 on full length FN) (human α5β1 integrin [2]) | % Inhibition of cell adhesion n = 2 (K562 on full length FN) (human α5β1 integrin [2]) | % Inhibition of cell adhesion n = 3 (K562 on GST-FNIII(9-10), no pre-incubation) (human α5β1 integrin [2]) | % Inhibition of cell adhesion n = 4 (K562 on GST-FNIII(9-10), supernatant 1 in 10) (human α5β1 integrin [2]) | % Inhibition of cell adhesion n = 5 (K562 on GST-FNIII(9-10), supernatant 1 in 10) (human α5β1 integrin [2]) | Geo Mean on Macaque T-cells IgG detection (Macaque α5β1) | IC50 ng/mL (K562 adhesion to GST-FNIII(9-10)) (human α5β1 integrin [3]) | Binding Geomean [4] | binding result [4] | % Inhibition of adhesion CS1 n = 1 (J6.77 Jurkat on GST-CS-1) [5] | % Inhibition of adhesion CS1 n = 2 (J6.77 Jurkat on GST-CS-1) [5]
4 | 2F5.1A4 (antibody, IgG2, V domains shown) VH: QMQLVQSGAEVKKPGASVKVSCKASGYTFTGYYMHWVRQAPGQGLEWMGWINTNSGGTNCAQKFQVRVTMTRDTSISTAYMELSRLRSDDTAVYYCARGRGYSSGWYDYWGQGTLVTVSS VL: not shown | -12% | 96% | 100% | 103% | 91% | 84% | 13 | 97.8 ng/mL | 2.94 | no binding | 31% | -8%
5 | 2E10.1B9 (antibody, IgG2, V domains shown) VH: RVQLQESGPGLVKPTQTLSLTCTVSGGSIISGGYFWTWIRQHPGKGLEWIGYIYYSGSTYYSPSLKSRVTISVDTSKNQFSLKLSSVTAADTAVYYCTRAVPAAKGYYSYYGMDVWGQGTTVTVSS VL: not shown |  | 97% | 94% | 96% | 86% | 87% | 12 |  | 3.11 | no binding | 31% | -5%
6 | 3G11.1A6 (antibody, IgG2, V domains shown) VH: RVQLQESGPGLVKPTQTLSLTCTVSGSSIISGGYFWTWIRQHPGKGLEWIGYIYYSGSTYYSPSLKSRVTISVDTSKNQFSLKLSSVTAADTAVYYCTRAVPAAKGYYSYYGMDVWGQGTTVTVSS VL: not shown | -2% | 99% | 99% | 93% | 92% | 100% | 13 | 9 ng/mL | 3.02 | no binding | 17% | 9%
7 | 2C5.2B12 (antibody, IgG2, V domains shown) VH: RVQLQESGPGLVKPTQTLSLTCTVSGGSIISGGYFWTWIRQHPGKGLEWIGYIYYSGSTYYSPSLKSRVTISVDTSKNQFSLKLSSVTAADTAVYYCTRAVPAAKGYYSYYGMDVWGQGTTVTVSS VL: not shown | 18% | 100% | 96% | 101% | 96% | 97% | 11 | 11.9 ng/mL | 3.6 | no binding | 14% | -5%
8 | 2A9.1A1 (antibody, IgG2, V domains shown) VH: RVQLQESGPGLVKPTQTLSLTCTVSGGSIISGGYFWTWIRQHPGKGLEWIGYIYYSGSTYYSPSLKSRVTISVDTSKNQFSLKLSSVTAADTAVYYCTRAVPAAKGYYSYYGMDVWGQGTTVTVSS VL: not shown | -19% | 100% | 94% | 96% | 94% | 100% | 12 | 14.1 ng/mL | 4.73 | no binding | 2% | 11%
9 | 3C2.2A8 (antibody, IgG2, V domains shown, also called mAb 3C2.2A8) VH: RVQLQESGPGLVKPTQTLSLTCTVSGGSIISGGYFWTWIRQHPGKGLEWIGYIYYSGSTYYSPSLKSRVTISVDTSKNQFSLKLSSVTAADTAVYYCTRAVPAAKGYYSYYGMDVWGQGTTVTVSS VL: not shown | 1% | 99% | 100% | 102% | 94% | 96% | 10 | 12.4 ng/mL | 3.29 | no binding | 22% | 18%
